In patent US20200407433A1:
Where a chain is given by its changes, count along the chain named.

B1: murine mAb 6G5C8C4 (antibody, mouse IgG2a, V domains shown)
VH: EVQLQQSGPELVKPGASVKISCKASGYTFTDYYMNWVKQSHGKSLEWIGDINPNNGGTTYNQKFKGKATLTVDKSSTTAYMELRSLTSEDSAVYYCAVITIVPYYFDYWGQGTTLTVSS
VL: DIVMTQSQKFMSTSVGDRVSVTCKASQNVGSNVAWYQQKPGQSPKALIYSASFRYSRVPDRFSGSGSGTDFTLTISNVQSEDLADYFCQQYNSYPYTFGAGTKLELK
B2: murine mAb 24G7B10G2 (antibody, mouse IgG2a, V domains shown)
VH: EVQLLQSGPELMKPGTSVKISCKASGYTFTDYYMNWVKQSHGKSLEWIGDVNPNNGDTTYNQKFKGKATLTIDKSSSTAYMELRSLTSEDSAVYYCASITIVPLYFDFWGQGTTLAVSS
VL: DIVMTQSQKFMSTSVGDRVSVTCKASQNVGINVAWYQQKPGQSPKALLYSASYRYSGVPDRFTGSGSGTDFTLTISNVKSGDLAEYFCQQYNTYPYTFGGGTKLEIK
B3: murine mAb 30B8G9B11 (antibody, mouse IgG2a, V domains shown)
VH: B1 VH with I51V, T59H, T77S, V98S, Y104V, Y108F
VL: B2 VL with I31P, Q37R, L48I, K79Q, G81E, E85D, F87I, T93Y

Target: Primate CGRP (primate (macaque))
Assay: ELISA, primate CGRP binding

Primate CGRP (primate (macaque)), sequence (P06881 83-119): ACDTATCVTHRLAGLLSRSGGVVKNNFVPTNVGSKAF

Point of comparison: B2, EC50 0.072 nM. Against it:
- B1 — within 1.5-fold, 0.101 nM
- B3 — within 1.5-fold, 0.07 nM
